Experimental data: paper PMC8260448

Molecular target: thrombin (UniProt P00734;P00734 315-363;364-622)
Assay: fluorescence polarization

GGTTGGTGTGGTTGG (structured_DNA, T3 replaced by 5-ethynyl-dU clicked to inactivated N-acyl sulfonamide 2b) [TBA(3)-2b]
Kd: 395 nM
